Among the data in patent publication US10519419B2, “Method for producing culture medium composition” (NISSAN CHEMICAL CORPORATION, priority 2014, dated 2019) are state, viscosity and HeLa cell suspension/sedimentation values, retold here.

Data set [1] is described as follows: State and viscosity measurement of medium composition (E type viscometer). It is filed as physicochemical. The following applies: DMEM/F-12; for viscosity: 37°C, 100 rpm. Here is the method: The viscosity of the liquid containing the structure can be measured, for example, by the method described in the below-mentioned Examples. Specifically, it can be measured under 37° C. conditions and using an E-type viscosity meter (manufactured by Toki Sangyo Co., Ltd., TV-22 type viscosity meter, model: TVE-22L, corn roter: standard roter 1° 34′×R24, rotation number 100 rpm).
This aqueous solution was allowed to cool to room temperature with stirring, and sterilized at 121° C. for 20 min in an autoclave. […] The viscosity of the medium compositions was measured using an E type viscometer (manufactured by Toki Sangyo Co., Ltd., Viscometer TVE-22L, standard roter 1° 34′×R24) under 37° C. condition at 100 rpm for 5 min.
The medium compositions prepared above were subjected to a suspension test of HeLa cell spheres and a viscosity measurement, in the same manner as with the deacylated gellan gum-containing medium. The viscosity of 1.0% (w/v) methylcellulose was measured at 50 rpm due to the measurement range of the apparatus.

In another data set the test system is HeLa cell spheres. Briefly: Cell suspension test with HeLa cell spheres. It is filed as cell-based, human. The following applies: DMEM/F-12, 37°C, 1 hr. Here is the method:
Human cervical cancer cell line HeLa (manufactured by DS PHARMA BIOMEDICAL CO., LTD.) was suspended in EMEM medium containing 10% (v/v) fetal bovine serum (manufactured by WAKO) at 250000 cells/mL, the suspension (10 mL) was plated on EZ SPHERE (manufactured by ASAHI GLASS CO., LTD.), and cultured in a CO2 incubator (5% CO2) for 3 days. The obtained suspension (10 mL) of spheres (diameter 100-200 μm) was centrifuged (200 G, 5 min) to allow for sphere sedimentation, and the supernatant was removed to give a sphere suspension (1.0 mL). Successively, the deacylated gellan gum-containing medium prepared above was placed in a 1.5 mL Eppendorf tube by 1.0 mL, and a HeLa cell sphere suspension (10 μL) was further added. The cell aggregate was dispersed by tapping, incubated at 37° C., and the dispersion state of the cells 1 hr later was visually observed.
In the same manner as in Reference Experimental Example 2, spheres of HeLa cells were formed, and several tens of the spheres were added to each medium (1 mL) prepared above, the mixture was stood still at 37° C. for 1 hr, and the suspended state of the sphere cells was visually observed. […] Furthermore, it was confirmed that addition of an equal amount of the medium to the cell suspension and centrifugation (300 to 400 G, 5 min) thereof result in sedimentation and recovery of the spheres of HeLa cells.
In the same manner as in Reference Experimental Example 2, spheres of HeLa cells were produced, and several tens of spheres were added to each medium (1 mL) prepared above, the mixture was stood still at 37° C. for 1 hr, and the suspended state of the sphere cells was visually observed. […] Furthermore, it was confirmed that centrifugation (200 G, 5 min) of the cell suspension containing 0.1% (w/v) diutan gum result in sedimentation and recovery of the spheres of HeLa cells.

For collagen, the state entry in data set [1] (collagen 0.01% (w/v)) is “liquid”; in data set [1] (collagen 0.05% (w/v)), “liquid/solid”; in data set [1] (collagen 0.1% (w/v)) it was “solid (gel)”; in data set [1] (collagen 0.2% (w/v)), “solid (gel)”. The viscosity was 1.18 mPa · s in data set [1] (collagen 0.01% (w/v)), “unmeasurable” in data set [1] (collagen 0.05% (w/v)), “unmeasurable” in data set [1] (collagen 0.1% (w/v)) and “unmeasurable” in data set [1] (collagen 0.2% (w/v)). For the same substance, the HeLa cell suspension/sedimentation result is “sedimentation” in the data set on HeLa cell spheres (collagen 0.01% (w/v)), “suspension” in the data set on HeLa cell spheres (collagen 0.05% (w/v)), “suspension” with HeLa cell spheres (collagen 0.1% (w/v)) and “suspension” in the data set with HeLa cell spheres (collagen 0.2% (w/v)).
